By EC50 (read off the curve) is commonly meant the concentration at which the effect is half-maximal. The low end stands for greater potency, the high end for weaker potency. The term EC50 denotes the concentration at which the effect is half-maximal. Broadly, the Kd is the equilibrium constant for the complex coming apart. Higher therefore signals weaker binding.

Like-named read-outs stand apart in the source and are kept apart here.

Assay [1] concerns the target T1, human NKG2D expressed on cells (human, UniProt P26718 1-216).
T1 construct: the cell type is named under assay; also called NKG2D on NK92 cells; HEK293T human NKG2D
T1 chain: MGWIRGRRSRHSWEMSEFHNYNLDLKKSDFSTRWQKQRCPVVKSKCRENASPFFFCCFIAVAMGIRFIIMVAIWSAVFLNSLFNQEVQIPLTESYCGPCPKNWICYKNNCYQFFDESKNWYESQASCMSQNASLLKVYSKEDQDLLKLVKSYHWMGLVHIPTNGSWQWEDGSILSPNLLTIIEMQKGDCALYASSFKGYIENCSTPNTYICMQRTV
As to the kind of experiment: flow cytometry on NK92 cells, PE anti-human Fc secondary antibody.

For assay [2], the target named is T1, human NKG2D expressed on cells. Nature of the assay: flow cytometry; NK92 cells. On the technique in general: A flow cytometer gives signals particle by particle.
Another assay addresses T2, hu N(A2B2)A-avi-His (human).
T2 construct: Construct containing the A2 domain of human CEA, with avi and His tags; also called human CEA (A2 domain)
T2 chain: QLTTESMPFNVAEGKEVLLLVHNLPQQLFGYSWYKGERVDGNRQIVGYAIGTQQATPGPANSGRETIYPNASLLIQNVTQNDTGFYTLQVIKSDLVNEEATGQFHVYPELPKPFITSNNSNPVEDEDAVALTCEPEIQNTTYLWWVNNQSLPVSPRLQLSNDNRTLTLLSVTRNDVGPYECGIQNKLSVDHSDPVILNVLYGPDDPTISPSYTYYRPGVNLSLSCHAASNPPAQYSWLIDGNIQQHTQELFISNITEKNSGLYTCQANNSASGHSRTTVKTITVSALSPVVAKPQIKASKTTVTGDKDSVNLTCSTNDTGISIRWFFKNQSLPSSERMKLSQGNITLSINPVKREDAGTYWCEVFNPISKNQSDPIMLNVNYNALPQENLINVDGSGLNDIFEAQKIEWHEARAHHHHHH
Nature of the assay: SPR Biacore T200; antigen captured via anti-His, bispecific analyte. On the procedure: (§1) On a CM5 chip, an anti-penta-His capture antibody (Qiagen Penta-His Antibody, BSA-free; #34660) was immobilized by standard amine coupling on flow cells 2 and 3 at approximately 12′000 RU. […] Regeneration at the level of the anti-H6 tag capture antibody was achieved by 2 pulses of 10 mM glycine/HCl pH 2.0 for 60 s. Data were double-referenced against the unimmobilized flow cell 1 and a zero concentration of the analyte. The sensorgrams of the analytes were fitted to a simple 1:1 Langmuir interaction model.
(SPR reads the build-up and loss of mass on a sensor chip optically.)

The next assay concerns the target T3, his avi huNKG2D ECD (human, biotinylated at the avi-tag (in the ELISA)).
T3 construct: Human NKG2D ECD with N-terminal H6-avi tags, forms non-covalent dimers; also called recombinant human NKG2D
T3 chain: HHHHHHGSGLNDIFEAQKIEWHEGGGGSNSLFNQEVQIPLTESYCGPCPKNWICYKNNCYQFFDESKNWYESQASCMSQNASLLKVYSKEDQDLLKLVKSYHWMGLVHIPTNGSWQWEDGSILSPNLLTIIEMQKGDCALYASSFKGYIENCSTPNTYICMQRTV
The assay is described as above. How it is done: as §1

The target of assay [3] is T4, CEA expressed on LS180 tumor cells (human, UniProt P06731 35-685).
T4 construct: whole, on cells; also called carcinoembryonic antigen; CEACAM5
T4 sequence (looked up): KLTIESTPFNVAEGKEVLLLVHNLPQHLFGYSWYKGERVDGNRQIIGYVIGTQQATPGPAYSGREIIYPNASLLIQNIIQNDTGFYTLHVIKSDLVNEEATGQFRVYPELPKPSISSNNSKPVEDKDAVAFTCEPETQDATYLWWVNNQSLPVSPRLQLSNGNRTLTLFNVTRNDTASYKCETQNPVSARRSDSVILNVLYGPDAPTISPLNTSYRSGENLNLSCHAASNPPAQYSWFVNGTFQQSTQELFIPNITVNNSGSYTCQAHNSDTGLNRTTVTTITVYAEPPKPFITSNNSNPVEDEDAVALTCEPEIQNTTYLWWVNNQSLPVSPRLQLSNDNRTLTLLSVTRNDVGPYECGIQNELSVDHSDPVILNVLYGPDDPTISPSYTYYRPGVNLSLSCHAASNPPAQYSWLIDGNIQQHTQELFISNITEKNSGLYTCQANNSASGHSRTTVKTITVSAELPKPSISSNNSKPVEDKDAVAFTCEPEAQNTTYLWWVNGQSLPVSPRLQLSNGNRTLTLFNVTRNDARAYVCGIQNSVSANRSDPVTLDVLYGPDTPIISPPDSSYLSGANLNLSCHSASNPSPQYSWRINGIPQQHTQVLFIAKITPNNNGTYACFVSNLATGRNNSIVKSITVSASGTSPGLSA
As to the kind of experiment: flow cytometry on CEA-positive LS180 cells, anti-human Fc secondary antibody. On the procedure: (§2) Viability of NK92 cells or tumor cells (MKN-45, LS180) was checked and cells were re-suspended and adjusted to a density of 1 mio cells/ml. 100 μl per well of this cell suspension (containing 0.1 mio cells) were seeded into a 96 well round bottom plate. The plate was centrifuged for 4 min at 400×g and the supernatant was removed. Then 40 μl of the diluted antibodies or FACS buffer were added to the cells and incubated for 30 min at 4° C. After the incubation the cells were washed twice with 150 μl FACS buffer per well. […] The cells were incubated for an additional 30 min at 4° C. To remove unbound antibody, the cells were washed again twice with 150 μl per well FACS buffer. To fix the cells, 100 μl of FACS buffer containing 1% PFA were added to the wells. Before measuring, the cells were re-suspended in 150 μl FACS buffer. The fluorescence was measured using a BD flow cytometer.

In assay [4] the target is T4, CEA expressed on LS180 tumor cells. Described as above. How it is done:
as §2
The source holds these as a separate data set.

Assay [5] addresses T1, human NKG2D expressed on cells. Nature of the assay: flow cytometry on NK cells (CD3- CD56+) within freshly isolated human PBMCs, anti-human Fc secondary antibody. How it is done: (§3) Viability of freshly isolated peripheral blood mononuclear cells (PBMCs) was checked and cells were adjusted to a density of 1 mio cells/ml in FACS buffer. 100 μl per well of the PBMCs (containing 0.1 mio cells) were seeded into a 96 well round bottom plate. The plate was centrifuged for 4 min at 400×g and the supernatant was removed. Then 0.5 μl FC BLOCK™ (BD Bioscience) in 20 μl total volume per well were added and the plate was incubated for 30 min at 4° C. Supernatant was removed and then 40 μl of the diluted anti-NKG2D antibodies were added to the cells and incubated for additional 30 min at 4° C. After the incubation, the cells were washed twice with 150 μl FACS buffer per well. […] The cells were incubated for an additional 30 min at 4° C. To remove unbound antibody, the cells were washed again twice with 150 μl per well FACS buffer. To fix the cells, 100 μl of FACS buffer containing 1% PFA were added to the wells. Before measuring the cells were re-suspended in 150 μl FACS buffer. The fluorescence was measured using a BD flow cytometer.

For assay [6] the target is unchanged. As to the kind of experiment: flow cytometry on CD8 T cells (CD3+ CD8+) within freshly isolated human PBMCs, anti-human Fc secondary antibody. On the procedure:
as §3

The target is the same in assay [7]. Nature of the assay: flow cytometry on NKG2D-positive NK92 cells, anti-human Fc secondary antibody. On the procedure: as §2

B1: bispecific NKG2D×CEA antibody in M format, ADI27743 / huA5B7 (bispecific antibody, human IgG1, kappa, L234A L235A)
heavy 1: not shown
light 1: QVQLQQWGAGLLKPSETLSLTCAVYGGSFSGYYWSWIRQPPGKGLEWIGEIDHSGSTNYNPSLKSRVTISVDTSKNQFSLKLSSVTAADTAVYYCARARGPWSFDPWGQGTLVTVSSASVAAPSVFIFPPSDEQLKSGTASVVCLLNNFYPREAKVQWKVDNALQSGNSQESVTEQDSKDSTYSLSSTLTLSKADYEKHKVYACEVTHQGLSSPVTKSFNRGEC
heavy 2: not shown
light 2: EIVLTQSPATLSLSPGERATLSCRASSSVTYIHWYQQKPGQAPRSWIYATSNLASGIPARFSGSGSGTDFTLTISSLEPEDFAVYYCQHWSSKPPTFGQGTKLEIKRTVAAPSVFIFPPSDRKLKSGTASVVCLLNNFYPREAKVQWKVDNALQSGNSQESVTEQDSKDSTYSLSSTLTLSKADYEKHKVYACEVTHQGLSSPVTKSFNRGEC
notes: also called ADI27743 bispecific
On to B1, for which the binding result in assay [1] is “binds”.

B2: NKG2D×CEA bispecific antibody in M format, P1AE4980 / huA5B7 (bispecific antibody, human IgG1, kappa, L234A L235A)
heavy 1: not shown
heavy 2: EVQLLESGGGLVQPGGSLRLSCAASGFTFTDYYMNWVRQAPGKGLEWLGFIGNKANAYTTEYSASVKGRFTISRDKSKNTLYLQMNSLRAEDTATYYCTRDRGLRFYFDYWGQGTTVTVSSASTKGPSVFPLAPSSKSTSGGTAALGCLVEDYFPEPVTVSWNSGALTSGVHTFPAVLQSSGLYSLSSVVTVPSSSLGTQTYICNVNHKPSNTKVDEKVEPKSCDKTHTCPPCPAPEAAGGPSVFLFPPKPKDTLMISRTPEVTCVVVDVSHEDPEVKFNWYVDGVEVHNAKTKPREEQYNSTYRVVSVLTVLHQDWLNGKEYKCKVSNKALGAPIEKTISKAKGQPREPQVCTLPPSRDELTKNQVSLSCAVKGFYPSDIAVEWESNGQPENNYKTTPPVLDSDGSFFLVSKLTVDKSRWQQGNVFSCSVMHEALHNHYTQKSLSLSP
light 1: QEQLVQSGAEVKKPGESLKISCKGSGFDFNTFWMTWVRQMPGKGLEWMGSIHGGSGSRDYSPSFQGQVTISADIDQSTAYLQWSSLKASDTAMYYCARPGYRSWSKTFDLWGQGTTVTVSSASVAAPSVFIFPPSDEQLKSGTASVVCLLNNFYPREAKVQWKVDNALQSGNSQESVTEQDSKDSTYSLSSTLTLSKADYEKHKVYACEVTHQGLSSPVTKSFNRGEC
light 2: EIVLTQSPATLSLSPGERATLSCRASSSVTYIHWYQQKPGQAPRSWIYATSNLASGIPARFSGSGSGTDFTLTISSLEPEDFAVYYCQHWSSKPPTFGQGTKLEIKRTVAAPSVFIFPPSDRKLKSGTASVVCLLNNFYPREAKVQWKVDNALQSGNSQESVTEQDSKDSTYSLSSTLTLSKADYEKHKVYACEVTHQGLSSPVTKSFNRGEC
notes: also called NKG2D×CEA bispecific antibody (humanized anti-NKG2D antibody variant P1AE4980, M format)
Turning to B2, in assay [1], the “EC50 (read off the curve)” value was ~3 nM. Besides, in [2], a half-maximal effect (EC50) was put at 7.38 nM. Moreover, the Kd with hu N(A2B2)A-avi-His was determined as 3.45 nM; with his avi huNKG2D ECD, 12.6 nM.

B3: NKG2D×CEA bispecific antibody, anti-NKG2D 320 / anti-CEA B9, L format (bispecific antibody, V domains shown)
VH 1: EVQLLESGGGLVQPGGSLRLSCATSGFTFSDYAMSWVRQAPGKGLEWVSYNSFSVGSTDYADSVKGRFTISRDNSKNTLYLQMNSLRAEDTAVYYCSKHSGNYYTGPFHYWGQGTLVTVSS
VL 1: DIQLTQSPSFLSASVGDRVTITCRASQGISSYLAWYQQKPGKAPKLLIYAASSLESGVPSRFSGSGSGTDFTLTISSLQPEDFATYYCQQSYSTPITFGQGTRLEIK
VH 2: VQLVESGGGLVQPGRSLRLSCAASGFTVSSYWMHWVRQAPGKGLEWVGFIRNKANGGTTEYAASVKGRFTISRDDSKNTLYLQMNSLRAEDTAVYYCARDRGLRFYFDYWGQGTTVTVSS
VL 2: QAVLTQPASLSASPGASASLTCTLRRGINVGAYSIYWYQQKPGSPPQYLLRYKSDSDKQQGSGVSSRFSASKDASANAGILLISGLQSEDEADYYCMIWHSGASAVFGGGTKLTVL
notes: also called format L (320)
Regarding B3, the “EC50 (read off the curve)” value in assay [3] is ~10 nM.

B4: anti-CEA antibody B9 (IgG) (antibody, V domains shown)
VH: VQLVESGGGLVQPGRSLRLSCAASGFTVSSYWMHWVRQAPGKGLEWVGFIRNKANGGTTEYAASVKGRFTISRDDSKNTLYLQMNSLRAEDTAVYYCARDRGLRFYFDYWGQGTTVTVSS
VL: QAVLTQPASLSASPGASASLTCTLRRGINVGAYSIYWYQQKPGSPPQYLLRYKSDSDKQQGSGVSSRFSASKDASANAGILLISGLQSEDEADYYCMIWHSGASAVFGGGTKLTVL
notes: IgG
Take B4: the “EC50 (read off the curve)” value in [3] and in assay [4] was ~2 nM throughout.

B5: NKG2D×CEA bispecific antibody, anti-NKG2D 395 (C50S) / anti-CEA B9, M format (bispecific antibody, V domains shown)
VH 1: QEQLEQSGGGLVTPGGSLKLCCTASGFDFNTFWMTWVRQAPGKGLEWIGSIHGGSGSRDYASWVNGRFTLSRDIDQSTACLQVNSLTAADTAMYYCARPGYRSWSKTFDLWGQGTMVTVSS
VL 1: DIQMTQSPSSLSASVGDRVTITCRASQDISGALNWYQQKPGKAPNLLIYAASSLQSGVPSRFSGSGSGTDYTLTISSLQPEDFATYYCQQANSFPLTFGGGTKVEIK
VH 2: VQLVESGGGLVQPGRSLRLSCAASGFTVSSYWMHWVRQAPGKGLEWVGFIRNKANGGTTEYAASVKGRFTISRDDSKNTLYLQMNSLRAEDTAVYYCARDRGLRFYFDYWGQGTTVTVSS
VL 2: QAVLTQPASLSASPGASASLTCTLRRGINVGAYSIYWYQQKPGSPPQYLLRYKSDSDKQQGSGVSSRFSASKDASANAGILLISGLQSEDEADYYCMIWHSGASAVFGGGTKLTVL
notes: also called monovalent format M
As to B5, the “EC50 (read off the curve)” value in assay [5] is ~5 nM; in [6] it was ~5 nM; in assay [7], ~4 nM; in assay [4], ~10 nM.

The record behind these values is patent publication US20240067734A1 (Hoffmann-La Roche, published 2024).
